We go through one substance from patent US20120237978A1.

The target of this test is β2AR part of the β2AR-Gs peptide fusion construct (receptor truncated at position 365) (human) (UniProt P07550). Nature of the test: cell-based or functional assay.

Turning to “last 21 amino acids of the Gαs subunit (amino acids 374-394, except for C379A), as fused in the β2AR-Gs peptide fusion construct”, the agonist affinity ([3H]-DHA competition binding with isoproterenol, Sf9 membranes) amounted to 27 fold; the effect on agonist binding affinity compared with the β2AR-Gs complex worked out at 3.5 fold; the fraction of β2AR in the Ki high state ([3H]-DHA / isoproterenol competition, Sf9 membranes) was 0.68.
